In article PMC3880588:
Numbering of substitutions follows the chain as printed.

Tests used:
Test in all cases: EMSA
[1] = test system: T1, MBNL-N-M34 F202A;Y236A, Q9NR56-5; conditions: EMSA: 10 mM HEPES pH 7.9, 3 mM MgCl2, 10 uM ZnCl2, 5% glycerol, 1 mM DTT, 20 ug/ml rRNA, 10 fmol RNA in 5 ul, 30 C 15 min, then heparin 5 min; 5% PAGE at 4 C …
T1 sequence: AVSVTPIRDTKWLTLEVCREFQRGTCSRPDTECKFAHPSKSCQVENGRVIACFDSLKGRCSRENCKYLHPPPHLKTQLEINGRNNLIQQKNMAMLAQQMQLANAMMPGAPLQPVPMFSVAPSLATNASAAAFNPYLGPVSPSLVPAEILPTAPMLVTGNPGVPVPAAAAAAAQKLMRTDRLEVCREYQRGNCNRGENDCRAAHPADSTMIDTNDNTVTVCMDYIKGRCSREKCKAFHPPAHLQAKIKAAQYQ

MBNL1-2-72, Q9NR56-5 = test system: T2, MBNL1-2-72, Q9NR56-5; conditions: no binding at any concentration (up to 2000 nM); EMSA: 10 mM HEPES pH 7.9, 3 mM MgCl2, 10 uM ZnCl2, 5% glycerol, 1 mM DTT, 20 ug/ml rRNA, 10 fmol RNA in 5 ul, 30 C 15 min, then heparin 5 min; 5% PAGE at 4 C …
T2 sequence: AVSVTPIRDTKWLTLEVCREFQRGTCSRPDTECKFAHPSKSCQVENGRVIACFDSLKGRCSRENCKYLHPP

[2] = test system: T3, MBNL-N-M12 F36A;Y68A, Q9NR56-5; conditions: no stable complex up to 2 uM; EMSA: 10 mM HEPES pH 7.9, 3 mM MgCl2, 10 uM ZnCl2, 5% glycerol, 1 mM DTT, 20 ug/ml rRNA, 10 fmol RNA in 5 ul, 30 C 15 min, then heparin 5 min; 5% PAGE at 4 C …
T3 sequence: T1 sequence with F35A, Y67A, A201F, A235Y

“GGGAGACAAGCUUAAGUCUACGCACCCUCAACCCGCACCUUGCGGGAUCACGCUGCCUGCUGCACCCCACCCCCUUCCCCCUUCCUUCCCCCCACCCCCGUACUCCACUGCCAACUCCCAG [Tpm1 URE RNA]” showed a fold decrease in binding affinity vs WT (fold lower affinity than WT MBNL1-N) [1] of 20, a Kd (MBNL1-2-72, Q9NR56-5) of over 2 µM and a Kd [2] of over 2 µM.

“GGGAGACAAGCUUUGCAAACUGUUAAUCUCAACUAACUGCCGCUUAAAUAAUUAGUGCAGCUUUUAACUACUGGUUCUGUCCCAACUGGCUACUUGUGCCUAAAGCCCAAAGAAUU [Vldlr RNA]” gave a fold decrease in binding affinity vs WT (fold lower affinity than WT MBNL1-N) [1] of 20, a Kd (MBNL1-2-72, Q9NR56-5) of over 2 µM and a Kd [2] of over 2 µM.

“GGGAGACAAGCUUGAGCUGGAUGCCGCCUCUGCUGCUGC [Tpm1 Dugc RNA]” gave a fold decrease in binding affinity vs WT (fold lower affinity than WT MBNL1-N) [1] of 20, a Kd (MBNL1-2-72, Q9NR56-5) of over 2 µM and a Kd [2] of over 2 µM.
